According to patent publication US20240116985A1 (published 2024):
Starred links: 1 amine or outer side, 2 acyl side, 3 side chain; linkers in the order of their positions; H or OH if unused. Positions of bridges follow the written chain, without caps; N, C: chain ends. Non-standard residues stand in square brackets, D forms with d. Primed or numbered codes have the meaning given here. PyrS2″ = (S)-3-amino-1-((pent-4-en-1-yloxy)carbonyl)pyrrolidine-3-carboxylic acid (stapling residue), C=CCCCOC(=O)N1CC[C@@](N[*:1])(C(=O)[*:2])C1; B5(4) = 2,2-bis(4-pentenyl)glycine = 2-amino-2-(pent-4-en-1-yl)hept-6-enoic acid (stitching residue), C=CCCCC(CCCC=C)(N[*:1])C(=O)[*:2]; B5(5) = 2,2-bis(4-pentenyl)glycine, 2-amino-2-(pent-4-en-1-yl)hept-6-enoic acid (stitching residue), C=CCCCC(CCCC=C)(N[*:1])C(=O)[*:2]; PyrS″ = (S)-1-((allyloxy)carbonyl)-3-aminopyrrolidine-3-carboxylic acid (stapling residue), C=CCOC(=O)N1CC[C@@](N[*:1])(C(=O)[*:2])C1; TfeGA = (S)-2-amino-3-((carboxymethyl)(2,2,2-trifluoroethyl)amino)propanoic acid, O=C([C@H](CN(CC(=O)[*:3])CC(F)(F)F)N[*:1])[*:2]; Az = 1-((allyloxy)carbonyl)-3-aminoazetidine-3-carboxylic acid (stapling residue), C=CCOC(=O)N1CC(N[*:1])(C(=O)[*:2])C1; (Bn)GAbu = (S)-2-amino-4-(benzyl(carboxymethyl)amino)butanoic acid, O=C([C@H](CCN(CC(=O)[*:3])Cc1ccccc1)N[*:1])[*:2]; PyrS = (S)-1-((allyloxy)carbonyl)-3-aminopyrrolidine-3-carboxylic acid, C=CCOC(=O)N1CC[C@@](N[*:1])(C(=O)[*:2])C1; B5(19) = 2-amino-2-(pent-4-en-1-yl)hept-6-enoic acid (bis(4-pentenyl)glycine), C=CCCCC(CCCC=C)(N[*:1])C(=O)[*:2]; (Et)GAbu = (S)-2-amino-4-((carboxymethyl)(ethyl)amino)butanoic acid, CCN(CC[C@H](N[*:1])C(=O)[*:2])CC(=O)[*:3]; Phe(3-COOH) = N[C@@H](Cc1cccc(C(=O)O)c1)C(=O)O; Phe(2-CF3) = N[C@@H](Cc1ccccc1C(F)(F)F)C(=O)O; Phe(2-Cl) = N[C@@H](Cc1ccccc1Cl)C(=O)O; 2Nal = N[C@@H](Cc1ccc2ccccc2c1)C(=O)O; Bta = N[C@@H](Cc1csc2ccccc12)C(=O)O; Lys(iPr) = CC(C)NCCCC[C@H](N)C(=O)O; αAllylPro = C=CC[C@@]1(C(=O)O)CCCN1; tBuAla = CC(C)(C)C[C@H](N)C(=O)O; 3Thi = N[C@@H](Cc1ccsc1)C(=O)O; Cha = N[C@@H](CC1CCCCC1)C(=O)O

T1: B-cat-Halo (beta-catenin HaloTag fusion expressed in HEK293 cells) (Homo sapiens (Human), UniProt P35222 1-781)
T1 sequence: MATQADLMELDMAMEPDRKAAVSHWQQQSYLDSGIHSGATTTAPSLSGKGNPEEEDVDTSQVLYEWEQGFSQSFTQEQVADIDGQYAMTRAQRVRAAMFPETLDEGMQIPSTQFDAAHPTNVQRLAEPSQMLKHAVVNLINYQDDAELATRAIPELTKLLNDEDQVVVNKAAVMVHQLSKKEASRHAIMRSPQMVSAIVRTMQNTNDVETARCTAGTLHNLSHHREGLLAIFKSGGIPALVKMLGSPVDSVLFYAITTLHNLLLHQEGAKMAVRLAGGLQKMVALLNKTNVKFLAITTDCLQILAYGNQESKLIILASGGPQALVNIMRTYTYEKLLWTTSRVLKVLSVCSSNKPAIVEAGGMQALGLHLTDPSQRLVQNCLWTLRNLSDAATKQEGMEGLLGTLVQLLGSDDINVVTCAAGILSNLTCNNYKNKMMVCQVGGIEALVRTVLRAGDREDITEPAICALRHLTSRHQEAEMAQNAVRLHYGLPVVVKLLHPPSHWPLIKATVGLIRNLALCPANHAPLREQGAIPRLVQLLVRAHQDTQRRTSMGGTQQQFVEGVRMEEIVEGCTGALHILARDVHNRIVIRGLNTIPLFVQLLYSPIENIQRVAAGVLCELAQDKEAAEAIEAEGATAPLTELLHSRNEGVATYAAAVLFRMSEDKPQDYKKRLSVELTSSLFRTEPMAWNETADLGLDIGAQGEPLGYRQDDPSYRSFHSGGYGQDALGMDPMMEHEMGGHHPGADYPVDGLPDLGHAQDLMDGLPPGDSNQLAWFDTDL

T2: B-cat-Halo (beta-catenin HaloTag construct expressed in HEK293 cells) (UniProt P35222 1-781)
T2 sequence (looked up): T1 sequence

B1: I-2446 (peptide)
peptide: Ac-[αAllylPro]N[Cha][B5(5)]DQ[Lys(iPr)]AFL[PyrS2″][3Thi][Bta]Q-NH2
modifications: staple 1-4, 4-11; not fully specified; printed as Ac-PL3-Asn-Cha-B5-Asp-Gln-iPrLys-Ala-Phe-Leu-PyrS2-3Thi-BztA-Gln-NH2
B2: I-2448 (peptide)
peptide: Ac-[αAllylPro]N[Cha][B5(4)]DT[Lys(iPr)]AFL[PyrS2″]F[Bta]Q-NH2
modifications: staple 1-4, 4-11
B3: I-2450 (peptide)
peptide: Ac-[αAllylPro]N[Cha][B5(4)]DT[Lys(iPr)]AFL[PyrS2″]F[Bta]K-NH2
modifications: staple 1-4, 4-11
B4: I-2456 (peptide)
peptide: Ac-[αAllylPro]D[tBuAla][B5(4)]D[Phe(3-COOH)]AAFL[PyrS2″][Phe(2-CF3)][SbMeBztA]Q-NH2
modifications: staple 1-4, 4-11
B5: I-2457 (peptide)
peptide: Ac-[αAllylPro]D[tBuAla][B5(4)]D[Phe(3-COOH)]QAFL[PyrS2″][Phe(2-CF3)][SbMeBztA]A-NH2
modifications: staple 1-4, 4-11
B6: I-2458 (peptide)
peptide: Ac-[αAllylPro]D[tBuAla][B5(4)]D[Phe(3-COOH)]AAFL[PyrS2″][Phe(2-CF3)][RbMeBztA]Q-NH2
modifications: staple 1-4, 4-11
B7: I-2459 (peptide)
peptide: Ac-[αAllylPro]D[tBuAla][B5(4)]D[Phe(3-COOH)]QAFL[PyrS2″][Phe(2-CF3)][RbMeBztA]A-NH2
modifications: staple 1-4, 4-11
B8: I-2460 (peptide)
peptide: Ac-[αAllylPro]D[tBuAla][B5(4)]D[Phe(3-COOH)]AAFL[PyrS2″][Phe(2-CF3)][2Nal]Q-NH2
modifications: staple 1-4, 4-11
B9: I-1823 (peptide)
peptide: Ac-[αAllylPro]D[tBuAla][B5(19)]DDAAFN[PyrS][3Thi][Bta]Q-NH2
modifications: staple 1-4, 4-11; also: staple olefins reduced to CH2-CH2
B10: I-1824 (peptide)
peptide: Ac-[αAllylPro]D[tBuAla][B5(4)]DDAAFL[PyrS″][3Thi][Bta]Q-NH2
modifications: staple 1-4, 4-11; also: staple -CH=CH- reduced to -CH2-CH2- in both staples
B11: I-1828 (peptide)
peptide: Ac-[αAllylPro]D[tBuAla][B5(4)]DDAAFL[Az][3Thi][Bta]Q-NH2
modifications: staple 1-4, 4-11
B12: I-1833 (peptide)
peptide: Ac-[αAllylPro]D[tBuAla][B5(4)]D[TfeGA]AAFL[PyrS2″][Phe(2-Cl)][Bta]Q-NH2
modifications: staple 1-4, 4-11
B13: I-1834 (peptide)
peptide: Ac-[αAllylPro]D[tBuAla][B5(4)]D[(Bn)GAbu]AAFL[PyrS2″][3Thi][Bta]Q-NH2
modifications: staple 1-4, 4-11
B14: I-1835 (peptide)
peptide: Ac-[αAllylPro]D[tBuAla][B5(4)]D[(Et)GAbu]AAFL[PyrS2″][3Thi][Bta]Q-NH2
modifications: staple 1-4, 4-11

target: T1, B-cat-Halo (beta-catenin HaloTag fusion …); assay: cell-based or functional assay

B1 and B2 cannot be ordered by “NanoBRET Abs IC50” value: greater than 20 µM for the first, greater than 20 µM for the second.

Going from B3 to B4, the “NanoBRET Abs IC50” value falls from greater than 20 µM to 8.1 µM.

Compared with B5, B6 is 3.5-fold lower in “NanoBRET Abs IC50” value: 20.8 µM for the first, 5.9 µM for the second.

B7 and B8 are within 1.5-fold of each other in “NanoBRET Abs IC50” value: 15.1 µM for the first, 12.8 µM for the second.

target: T2, B-cat-Halo (beta-catenin HaloTag …); assay: cell-based or functional assay

B9 and B10 cannot be ordered by “NanoBRET Abs IC50” value: greater than 20 µM for the first, greater than 20 µM for the second.

Going from B11 to B12, the “NanoBRET Abs IC50” value falls from greater than 20 µM to 6.9 µM.

Compared with B13, B14 is 1.7-fold higher in “NanoBRET Abs IC50” value: 18.8 µM for the first, 31.9 µM for the second.
